Test results reported in US9266930.
Where two headings read alike, the source gives them in different places.

Columns and labels:
HLA-A*0301 (human) = experiment: competition with 125I-labelled standard peptide for purified HLA, gel filtration
HLA-A*1101 (human) [1] = experiment: as above
HLA-A*6801 (human) = experiment: as above
HLA-A*0201 (human) [2] = molecular target: HLA-A*0201 (human)
[3] = molecular target: T1, HLA-DR5w12 (DRB1*1201) (human)
T1 chain 1: not shown
T1 chain 2: not shown

[4] = molecular target: HLA-DR2w2β1 (DRB1*1501) (human)
[5] = molecular target: HLA-DR2w2β2 (DRB5*0101) (human)
[6] = molecular target: HLA-DR3 (DRB1*0301) (human)
[7] = molecular target: HLA-DR4w15 (DRB1*0405) (human)
[8] = molecular target: HLA-DR5w11 (DRB1*1101) (human)
[9] = molecular target: HLA-A*1101 (purified HLA class I molecule) (human)
[10] = molecular target: T2, HLA-DR1 (DRB1*0101) (human); experiment: inhibition of 125I-probe peptide binding to purified HLA-DR, gel filtration
T2 chain 1: not shown
T2 chain 2: not shown

[11] = molecular target: T3, HLA-DR2w2β2 (DRB5*0101) (human); experiment: as above
T3 chain 1: not shown
T3 chain 2: not shown

[12] = molecular target: T4, HLA-DR4w15 (DRB1*0405) (human); experiment: as above
T4 chain 1: not shown
T4 chain 2: not shown

[13] = molecular target: T5, HLA-DR4w4 (DRB1*0401) (human); experiment: as above
T5 chain 1: not shown
T5 chain 2: not shown

[14] = molecular target: T6, HLA-DR5w11 (DRB1*1101) (human); experiment: as above
T6 chain 1: not shown
T6 chain 2: not shown

[15] = molecular target: T1, HLA-DR5w12 (DRB1*1201) (human)
[16] = molecular target: T7, HLA-DR6w19 (DRB1*1302) (human)
T7 chain 1: not shown
T7 chain 2: not shown

[17] = molecular target: T8, HLA-DR7 (DRB1*0701) (human)
T8 chain 1: not shown
T8 chain 2: not shown

[18] = molecular target: T9, HLA-DR8w2 (DRB1*0802) (human)
T9 chain 1: not shown
T9 chain 2: not shown

[19] = molecular target: T10, HLA-DR9 (DRB1*0901) (human)
T10 chain 1: not shown
T10 chain 2: not shown

HLA-A*1101 (human) [20] = molecular target: HLA-A*1101 (human)
HLA-A*0201 (human) [21] = experiment: competition with 125I probe peptide for purified HLA, gel filtration
HLA-A*0203 (human) = experiment: as above
HLA-A*0206 (human) = experiment: as above
HLA-A*0201 (Human) [22] = molecular target: HLA-A*0201 (Human)
[23] = molecular target: HLA-DR3 (DRB1*0301) (human); experiment: competition with 125I-labeled probe peptide on purified HLA-DR, gel filtration
[24] = molecular target: T2, HLA-DR1 (DRB1*0101) (human)
[25] = molecular target: T11, HLA-DR2w2β1 (DRB1*1501) (human)
T11 chain 1: not shown
T11 chain 2: not shown

[26] = molecular target: T3, HLA-DR2w2β2 (DRB5*0101) (human)
[27] = molecular target: T4, HLA-DR4w15 (DRB1*0405) (human)
[28] = molecular target: T6, HLA-DR5w11 (DRB1*1101) (human)
HLA-A*3301 (human) = experiment: competition with 125I-labelled standard peptide for purified HLA, gel filtration

In the case of QVRKHLNDR (modifications not checked), the binding affinity ratio (IC50 of standard peptide / IC50 of test peptide) (HLA-A*0301 (human)) is reported as 0.0005, the binding affinity ratio (IC50 of standard peptide / IC50 of test peptide) (HLA-A*1101 (human) [1]) is reported as 0.0002 and the binding affinity ratio (IC50 of standard peptide / IC50 of test peptide) (HLA-A*6801 (human)) is reported as 0.0002.

Work on SVFNVVNSSI (modifications not checked) [… (P. falciparum CSP, position 415, 10 amino acids)] yielded a binding affinity ratio (IC50 of standard peptide / IC50 of test peptide) (HLA-A*0201 (human) [2]) of 0.0005.

VTCGNGIQV (modifications not checked) [… (P. falciparum CSP, position 375, 9 amino acids)] gave a binding affinity ratio (IC50 of standard peptide / IC50 of test peptide) (HLA-A*0201 (human) [2]) of 0.0011.

Binder EALFQEYQCYGSSSN (modifications not checked) [… (Pf CSP DR-supermotif 15-mer, core …)] has a binding affinity ratio (relative to standard peptide) [3] of 0.0001.

VSTVLLGGVGLVLYN (modifications not checked) showed a binding affinity ratio (IC50 of standard peptide / IC50 of test peptide) [4] of 0.008, a binding affinity ratio (IC50 of standard peptide / IC50 of test peptide) [5] of 0.0005 and a binding affinity ratio (IC50 of standard peptide / IC50 of test peptide) [6] of -0.0008. The binding affinity ratio (IC50 of standard peptide / IC50 of test peptide) [7] was -0.0009 and the binding affinity ratio (IC50 of standard peptide / IC50 of test peptide) [8] was 0.0003.

For TCGKGTRSRK (modifications not checked) [… (Pf SSP2 256, 10-mer)], the binding affinity ratio (IC50 of standard peptide / IC50 of test peptide) [9] was 0.0002.

EALFQEYQCYGSSSN (modifications not checked) gave a binding affinity ratio (relative binding) (ratio to standard peptide) [10] of 0.0001, a binding affinity ratio (relative binding) (ratio to standard peptide) [11] of -0.0005 and a binding affinity ratio (relative binding) (ratio to standard peptide) [12] of -0.0009. For the same binder, the binding affinity ratio (relative binding) (ratio to standard peptide) [13] was 0.0053 and the binding affinity ratio (relative binding) (ratio to standard peptide) [14] was -0.0002.

Binder VFFLALFFIIFNKES (modifications not checked) [… (Pf EXP 6)] has a binding affinity ratio (IC50 of standard peptide / IC50 of test peptide) [15] of 0.0002, a binding affinity ratio (IC50 of standard peptide / IC50 of test peptide) [16] of -0.0002 and a binding affinity ratio (IC50 of standard peptide / IC50 of test peptide) [17] of 0.0056. The binding affinity ratio (IC50 of standard peptide / IC50 of test peptide) [18] was -0.0007 and the binding affinity ratio (IC50 of standard peptide / IC50 of test peptide) [19] was -0.0018.

LALFFIIFNK (modifications not checked) [Pf EXP peptide … (position 9)] gave a binding affinity ratio (relative to standard peptide) (HLA-A*1101 (human) [20]) of 0.053.

For FMKAVCVEV (modifications not checked) [1167.16], the IC50 (HLA-A*0201 (human) [21]) was 63 nM, the IC50 (HLA-A*0203 (human)) was 2.9 nM and the IC50 (HLA-A*0206 (human)) was 389 nM.

With TVLLGGVGLVLYNTE (modifications not checked) [… (Pf EXP 90)] the binding affinity ratio (IC50 of standard peptide / IC50 of test peptide) [15] was 0.0004, the binding affinity ratio (IC50 of standard peptide / IC50 of test peptide) [17] was 0.0007 and the binding affinity ratio (IC50 of standard peptide / IC50 of test peptide) [18] was -0.0002.

ILSVFFLAL (modifications not checked) [… (EXP position 3, 9 amino acids)] was tested, and the binding affinity ratio (IC50 of standard peptide / IC50 of test peptide) (HLA-A*0201 (Human) [22]) was 0.0058.

FIIFNKESLAEKTNK (modifications not checked) showed a binding affinity ratio (IC50 standard peptide / IC50 test peptide) [23] of 0.004.

Work on NSSIGLIMVLSFLFL (modifications not checked) yielded a binding affinity ratio (relative binding) (ratio to standard peptide) [24] of 0.004, a binding affinity ratio (relative binding) (ratio to standard peptide) [25] of 0.025 and a binding affinity ratio (relative binding) (ratio to standard peptide) [26] of 0.0024. The binding affinity ratio (relative binding) (ratio to standard peptide) [27] was 0.0035 and the binding affinity ratio (relative binding) (ratio to standard peptide) [28] was -0.0005.

Work on KILSVFFLA (modifications not checked) [1167.13] yielded an IC50 (HLA-A*0206 (human)) of 8 nM.

Work on PSPNPEEGK (modifications not checked) yielded a binding affinity ratio (IC50 of standard peptide / IC50 of test peptide) (HLA-A*0301 (human)) of 0.0005, a binding affinity ratio (IC50 of standard peptide / IC50 of test peptide) (HLA-A*1101 (human) [1]) of 0.0002 and a binding affinity ratio (IC50 of standard peptide / IC50 of test peptide) (HLA-A*3301 (human)) of 0.001. The binding affinity ratio (IC50 of standard peptide / IC50 of test peptide) (HLA-A*6801 (human)) was 0.0002.
